The values that follow come from article PMC11560669 (Angewandte Chemie (International ed. in English), 2024).

One experiment addresses MBP-Z(6H). The experiment is described as follows: cross-linking.
For a further experiment, the target named is MBP-Z(6K). Briefly: cross-linking.
In another experiment the target is MBP-Z(6Y). The experiment is described as follows: cross-linking.
Experiment [1] concerns the target extracellular domain (ECD) of human epidermal growth factor receptor (EGFR) (human) (UniProt P00533). The experiment is described as follows: cross-linking.
Experiment [2] deals with extracellular domain (ECD) of human epidermal growth factor receptor 2 (HER2) (human) (UniProt P04626). Briefly: cross-linking.
Experiment [3] shares this target. Briefly: cross-linking. This is another data set of the same source.
Experiment [4] has the same target. Briefly: cross-linking. The source holds these as a separate data set.
Experiment [5] has as its target extracellular domain (ECD) of human epidermal growth factor receptor 2 (HER2) (Homo sapiens, UniProt P04626). Briefly: ELISA.

Where a chain is given by its changes, count along the chain named. In names and notes the source's numbering stands. Where two headings read alike, the source gives them in different places.

With “Zspa affibody Afb(36FSY/F32R) (designed binder)”, the fold change of cross-linking rate against Afb(36FSY) is 3.7 fold in the experiment with MBP-Z(6H), 3.4 fold with MBP-Z(6K) and 10.5 fold with MBP-Z(6Y). Also, the fold change of cross-linking yield at 16 h against Afb(36FSY) with MBP-Z(6H) amounted to 2.9 fold; with MBP-Z(6K), 2.3 fold; in the experiment with MBP-Z(6Y) it was 7.9 fold.

“Zspa affibody Afb(36PFY/F32R) (designed binder)”: the percent increase of the PFEx cross-linking rate against Afb(36PFY) in the experiment with MBP-Z(6H) is 44%. For the same molecule, in the experiment with MBP-Z(6Y), the kobs of cross-linking turned out to be 0.0218 h⁻¹.

“covalent NK engager 7D12(Y109FSY/E44R)-C21 (bispecific antibody)” gave a fold change of kobs of cross-linking against 7D12(Y109FSY)-C21 in experiment [1] of 2.5 fold.

nanobody 2rs15d(D54FSY) (VHH): the kobs of cross-linking in experiment [2] was determined as 0.568 h⁻¹.

For the molecule nanobody 2rs15d(D54FSY/D56R) (VHH), in experiment [3], the fold change of kobs of cross-linking against 2rs15d(D54FSY) at pH 6.5 was found to be 6.6 fold and the kobs of cross-linking came out at 0.888 h⁻¹. In experiment [2], this molecule came in with a kobs of cross-linking of 1.96 h⁻¹. For the same molecule, in experiment [4], the fold change of kobs of cross-linking against 2rs15d(D54FSY) at pH 6.0 came to 10.7 fold and the kobs of cross-linking was 0.705 h⁻¹.

The molecule nanobody 7D12(Y109FFY/E44R) (VHH) yielded a kobs of cross-linking in experiment [1] of 0.66 h⁻¹.

With nanobody 7D12(Y109FSY/E44R) (VHH), the kobs of cross-linking in experiment [1] was found to be 0.342 h⁻¹.

Turning to nanobody 7D12(Y109mFSY/E44R) (VHH), the fold change of kobs of cross-linking against 7D12(Y109mFSY) in experiment [1] is 1.9 fold.

B1: nanobody 2rs15d(D54Y) with the Arg mutation at G53 (VHH)
VHH: QVQLQESGGGSVQAGGSLKLTCAASGYIFNSCGMGWYRQSPGRERELVSRISRYGDTWHKESVKGRFTISQDNVKKTLYLQMNSLKPEDTAVYFCAVCYNLETYWGQGTQVTVSS
Consider B1, for which the binding result in experiment [5] is recorded as “binds”.

B2: nanobody 2rs15d(D54Y) with the Arg mutation at G55 (VHH)
VHH: B1 VHH with R53G, G55R
As to B2, the binding result in experiment [5] is on record as “binds”.

B3: nanobody 2rs15d(D54Y) with the Arg mutation at D56 (VHH)
VHH: B1 VHH with R53G, D56R
For B3, the “fold decrease of binding affinity against 2rs15d(D54Y)” value in experiment [5] stood at 14 fold.
